# B1: Programmed cell death protein 4 (Homo sapiens), Q53EL6 (parent)
# chain: MDVENEQILNVNPADPDNLSDSLFSGDEENAGTEEIKNEINGNWISASSINEARINAKAKRRLRKNSSRDSGRGDSVSDSGSDALRSGLTVPTSPKGRLLDRRSRSGKGRGLPKKGGAGGKGVWGTPGQVYDVEEVDVKDPNYDDDQENCVYETVVLPLDERAFEKTLTPIIQEYFEHGDTNEVAEMLRDLNLGEMKSGVPVLAVSLALEGKASHREMTSKLLSDLCGTVMSTTDVEKSFDKLLKDLPELALDTPRAPQLVGQFIARAVGDGILCNTYIDSYKGTVDCVQARAALDKATVLLSMSKGGKRKDSVWGSGGGQQSVNHLVKEIDMLLKEYLLSGDISEAEHCLKELEVPHFHHELVYEAIIMVLESTGESTFKMILDLLKSLWKSSTITVDQMKRGYERIYNEIPDINLDVPHSYSVLERFVEECFQAGIISKQLRDLCPSRGRKRFVSEGDGGRLKPESY
# Variants of: B1
# Settings: with if4a1_human EIF4A1, P60842
# if4a1_human EIF4A1, P60842, sequence (P60842 whole entry): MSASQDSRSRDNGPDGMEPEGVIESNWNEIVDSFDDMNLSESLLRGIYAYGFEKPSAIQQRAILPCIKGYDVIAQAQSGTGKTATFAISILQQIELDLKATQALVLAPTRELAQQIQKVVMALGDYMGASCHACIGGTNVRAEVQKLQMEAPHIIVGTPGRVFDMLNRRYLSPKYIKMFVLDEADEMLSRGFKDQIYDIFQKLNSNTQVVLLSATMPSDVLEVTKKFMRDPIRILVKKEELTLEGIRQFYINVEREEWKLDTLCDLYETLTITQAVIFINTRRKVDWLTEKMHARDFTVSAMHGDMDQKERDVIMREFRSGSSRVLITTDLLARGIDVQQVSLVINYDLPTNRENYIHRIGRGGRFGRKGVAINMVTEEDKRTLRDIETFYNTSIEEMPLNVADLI
row,Variant,effect of a mutation on the interaction
1,D253A;D418A,decreasing interaction
2,D418A,decreasing interaction

# Source: IntAct's records for PubMed 24413684
